Ends that are not written are not given here. * marks the point of attachment. Biotin = O=C1N[C@H]2[C@H](CS[C@H]2CCCCC(=O)*)N1
Assays:
Experiment in all cases: peptide or protein array; E. coli proteome chip: purified His-tagged proteins printed in duplicate on Fullmoon slides, blocked with 1% BSA; 10 nM N-terminal biotinylated LfcinB with 1% BSA, room temperature, 1 h; detected with DyLight 649-labeled streptavidin, ratio to DyLight 549-labeled anti-His antibody; ProCAT normalisation, local cut-off; triplicate chips
Settings in all cases: both partners purified
YgiG = target: T1, YgiG (E. coli K-12, UniProt P0AC16 1-122)
T1 construct: YgiG, E. coli K-12
T1 sequence (looked up): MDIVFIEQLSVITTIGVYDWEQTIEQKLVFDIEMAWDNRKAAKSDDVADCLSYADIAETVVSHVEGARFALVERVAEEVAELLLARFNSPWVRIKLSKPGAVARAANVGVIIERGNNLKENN

IlvL = target: T2, IlvL (E. coli K-12, UniProt P62522 1-32)
T2 construct: IlvL, E. coli K-12
T2 chain (looked up): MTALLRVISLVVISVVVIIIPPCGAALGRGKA

GloA = target: T3, GloA (E. coli K-12, UniProt P0AC81 1-135)
T3 construct: GloA, E. coli K-12
T3 sequence (looked up): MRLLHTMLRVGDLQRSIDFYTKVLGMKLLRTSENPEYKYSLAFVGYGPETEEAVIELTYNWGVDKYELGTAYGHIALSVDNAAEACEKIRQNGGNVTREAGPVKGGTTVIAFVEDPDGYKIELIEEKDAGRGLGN

PurC = target: T4, PurC (E. coli K-12, UniProt P0A7D7 1-237)
T4 construct: PurC, E. coli K-12
T4 sequence (looked up): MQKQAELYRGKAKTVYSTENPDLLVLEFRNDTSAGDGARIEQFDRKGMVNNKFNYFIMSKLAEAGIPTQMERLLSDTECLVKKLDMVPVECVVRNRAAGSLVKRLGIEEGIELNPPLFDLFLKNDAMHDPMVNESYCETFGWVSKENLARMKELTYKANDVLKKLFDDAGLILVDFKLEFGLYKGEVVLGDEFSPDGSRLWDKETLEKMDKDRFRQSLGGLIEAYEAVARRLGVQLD

YnhE = target: T5, YnhE (E. coli K-12, UniProt P77522 1-495)
T5 construct: YnhE, E. coli K-12
T5 sequence (looked up): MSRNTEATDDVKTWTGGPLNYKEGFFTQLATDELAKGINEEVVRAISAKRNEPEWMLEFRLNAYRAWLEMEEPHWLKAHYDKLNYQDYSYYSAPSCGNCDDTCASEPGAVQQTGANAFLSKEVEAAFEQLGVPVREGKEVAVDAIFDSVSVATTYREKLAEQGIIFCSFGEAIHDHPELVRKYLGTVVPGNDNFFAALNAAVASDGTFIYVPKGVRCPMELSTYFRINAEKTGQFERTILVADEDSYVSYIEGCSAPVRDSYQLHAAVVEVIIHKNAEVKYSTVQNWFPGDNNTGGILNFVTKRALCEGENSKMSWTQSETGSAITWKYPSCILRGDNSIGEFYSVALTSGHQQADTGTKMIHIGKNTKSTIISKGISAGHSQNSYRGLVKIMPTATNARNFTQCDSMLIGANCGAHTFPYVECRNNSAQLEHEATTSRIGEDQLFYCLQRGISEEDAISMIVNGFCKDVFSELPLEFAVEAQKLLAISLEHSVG

YdiT = target: T6, YdiT (E. coli K-12, UniProt P77714 1-97)
T6 construct: YdiT, E. coli K-12
T6 sequence (looked up): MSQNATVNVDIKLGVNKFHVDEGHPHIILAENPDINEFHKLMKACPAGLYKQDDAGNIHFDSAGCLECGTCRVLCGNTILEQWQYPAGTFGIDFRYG

YjiL = target: T7, YjiL (E. coli K-12, UniProt P39383 1-255)
T7 construct: YjiL, E. coli K-12
T7 sequence (looked up): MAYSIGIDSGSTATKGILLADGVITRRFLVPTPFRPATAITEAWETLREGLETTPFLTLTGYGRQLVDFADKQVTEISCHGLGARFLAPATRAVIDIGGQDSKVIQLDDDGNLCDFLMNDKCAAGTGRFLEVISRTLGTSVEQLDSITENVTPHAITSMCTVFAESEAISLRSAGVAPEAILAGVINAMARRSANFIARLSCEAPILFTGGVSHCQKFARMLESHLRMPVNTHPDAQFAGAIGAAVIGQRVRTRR

[1] = target: T8, ribonucleoside-diphosphate reductase 2, β subunit (E. coli K-12, UniProt P37146 1-319)
T8 construct: NrdF, ribonucleoside-diphosphate reductase 2, β subunit, E. coli K-12; no measurement of the oligomer here; also called NrdF

Measured: binding result

T8 sequence (P37146 whole entry): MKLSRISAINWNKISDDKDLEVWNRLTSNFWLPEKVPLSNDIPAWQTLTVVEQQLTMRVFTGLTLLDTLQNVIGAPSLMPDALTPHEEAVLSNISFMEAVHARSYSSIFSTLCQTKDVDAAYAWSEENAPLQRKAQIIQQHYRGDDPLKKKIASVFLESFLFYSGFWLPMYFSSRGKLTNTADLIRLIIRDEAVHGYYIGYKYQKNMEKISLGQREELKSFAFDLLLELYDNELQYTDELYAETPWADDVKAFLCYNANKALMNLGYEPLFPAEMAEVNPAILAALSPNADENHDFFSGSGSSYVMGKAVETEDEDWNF

B1: N-terminal biotinylated Lactoferricin B (peptide, UniProt P24627 36-60, looked up)
peptide: Biotin-FKCRRWQWRMKKLGAPSITCVRRAF
modifications: ends and bridges not checked
notes: lactoferricin B (LfcinB), cationic antimicrobial peptide of 25 amino acids; also called biotinylated LfcinB; biotin-labeled LfcinB; source: bought: Kelowna Inc
binds: YgiG | IlvL | GloA | PurC | YnhE | YdiT | YjiL | [1]

Source: paper PMC3229523, “Identification of Lactoferricin B Intracellular Targets Using an Escherichia coli Proteome Chip” (PLoS ONE, 2011)
